Measurements as given in patent publication US12187785B2, “Recombinant protein and fragments thereof, method for producing said recombinant protein, synthetic gene and use of sculptin or recombinant protein for preparing a medicament or pharmaceutical composition for the prophylaxis and/or treatment of thromboembolic diseases or as a direct and specific …” (priority 2017, dated 2025).

Experiments:
[1] = target: T1, plasmin (Homo sapiens, UniProt P00747); test: Serine protease inhibition test, plasmin (chromogenic substrate); format: biochemical; conditions: recombinant protein 1, 100, 200 nM; protease 100 pM; 6 h at 37° C.
T1 construct: Serine protease (100 pM; thrombin, plasmin, trypsin or factor Xa) was incubated with recombinant protein
T1 sequence (P00747 581-810 limits assumed, species assumed): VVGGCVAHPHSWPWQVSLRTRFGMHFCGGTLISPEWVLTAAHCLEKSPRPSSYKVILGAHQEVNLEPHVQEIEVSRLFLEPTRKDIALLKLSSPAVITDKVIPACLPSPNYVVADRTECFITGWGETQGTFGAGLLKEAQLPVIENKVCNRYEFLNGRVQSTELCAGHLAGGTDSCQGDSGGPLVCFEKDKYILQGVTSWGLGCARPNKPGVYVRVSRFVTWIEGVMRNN
T1 sequence (P00747 97-580 limits assumed, species assumed): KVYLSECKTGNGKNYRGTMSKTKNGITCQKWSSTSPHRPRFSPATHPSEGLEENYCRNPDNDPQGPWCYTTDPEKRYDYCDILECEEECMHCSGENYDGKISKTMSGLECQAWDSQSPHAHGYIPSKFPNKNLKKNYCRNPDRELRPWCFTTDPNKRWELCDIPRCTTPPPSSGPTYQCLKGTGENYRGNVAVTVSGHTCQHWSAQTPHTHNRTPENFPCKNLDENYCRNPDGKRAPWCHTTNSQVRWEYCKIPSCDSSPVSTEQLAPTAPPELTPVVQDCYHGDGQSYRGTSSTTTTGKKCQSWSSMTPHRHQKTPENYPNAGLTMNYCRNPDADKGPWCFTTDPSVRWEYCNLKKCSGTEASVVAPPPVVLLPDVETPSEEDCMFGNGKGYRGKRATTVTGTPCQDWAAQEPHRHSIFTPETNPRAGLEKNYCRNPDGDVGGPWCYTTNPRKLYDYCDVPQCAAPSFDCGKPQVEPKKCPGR
Protocol: (A) Inhibition of serine proteases through recombinant protein. Serine protease (100 pM; thrombin, plasmin, trypsin or factor Xa) was incubated with recombinant protein (1, 100 and 200 nM) in phosphate buffer 50 mM containing NaCl 150 mM and 0.1% of PEG 6000, pH 7.4 for 6 h at 37° C. Following addition of chromogenic substrate corresponding to reaction mixture, hydrolysis thereof was monitored at 405 nm. For factor Xa activity, buffer contained phosphatidylserine and phosphatidylcholine 50 μM. […] (B) Typical curves for hydrolysis of chromogenic substrate S-2238 (15 μM) by thrombin 0.1 nM in absence (trace a) or presence of recombinant protein (trace b, 15 pM; trace c, 30 pM; trace d, 60 pM and trace e, 100 pM) in phosphate buffer 50 mM containing NaCl 150 mM and 0.1% of PEG 6000, pH 7.4 at 37° C. (C) Residual activity of thrombin in presence of increasing concentration of recombinant protein. (D) Dose-response curves for thrombin inhibition by recombinant protein. Percentage of thrombin inhibition was plotted versus the concentration record of recombinant protein. Experimental condition of (C) and (D) is the same as in (B).
The first performed experiment was the test of serine proteases inhibition through recombinant protein. […] Hydrolysis of a chromogenic substrate through serine proteases in the presence and absence of recombinant protein was monitored in a spectrophotometer way. […]

[2] = target: T1, plasmin; test: Degradation of recombinant protein by plasmin (SDS-PAGE and residual thrombin inhibition); format: in vitro ADME
Protocol: (§1) Recombinant protein (10 μM) was incubated with or without serine protease 1 μM (thrombin, plasmin, trypsin or factor Xa) in phosphate buffer 50 mM containing NaCl 150 mM and 0.1% of PEG 6000, pH 7.4 for 4, 6, 7 or 18 h at 37° C. Reaction mixtures (20 μl) were split by SDS-PAGE. (A) hydrolysis SDS-PAGE (15%) of recombinant protein by serine proteases following 6 h of incubation. (B) Percentage of thrombin inhibition by recombinant protein following 6 h of incubation with serine protease (see experimental procedures). (C) hydrolysis SDS-PAGE (15%) of recombinant protein by serine proteases following 18 h of incubation. (D) Percentage of thrombin inhibition by recombinant protein following 18 h of incubation with serine protease (see experimental procedures). Numbering of (B) and (D) corresponds to numbering of (A) and (C), respectively, and recombinant protein control is represented by CTRL. Recombinant protein (strip 1); thrombin (strip 2) and thrombin with recombinant protein (strip 3); plasmin (strip 4) and plasmin with recombinant protein (strip 5); trypsin (strip 6) and trypsin with recombinant protein (strip 7); factor Xa (strip 8) and factor Xa with recombinant protein (strip 9) and protein marker (strip 10; in A). (E) Identification of cleavage sites of thrombin in recombinant protein following 7 h of incubation. (F) Identification of cleavage sites of factor Xa in recombinant protein following 4 h of incubation. Cleavage sites of thrombin and factor Xa in recombinant protein sequence are shown in FIGS. S1 and S2, respectively. Experimental procedure for (C), (D), (E) and (F) was the same as for (A) and (B), except the incubation time and the type of serine protease used. FIG. 5 discloses “GKPQG” as SEQ ID NO: 18, “MPKGG” as SEQ ID NO: 19, and “SDAVH” as SEQ ID NO: 20.
(§2) Afterwards, it was determined whether serine proteases, like thrombin, plasmin, factor Xa and trypsin, hydrolyze recombinant protein. […] Upon addition of chromogenic substrate S-2238, the hydrolysis thereof by thrombin was monitored in spectrophotometer way. […]

[3] = target: T2, factor Xa (Homo sapiens, UniProt P00742); test: Degradation of recombinant protein by factor Xa (SDS-PAGE and residual thrombin inhibition); format: in vitro ADME; conditions: for thrombin inhibition after incubation: diluted to 100 pM
T2 construct: Serine protease (100 pM; thrombin, plasmin, trypsin or factor Xa) was incubated with recombinant protein; For factor Xa activity, buffer contained phosphatidylserine and phosphatidylcholine 50 μM
T2 sequence (P00742 235-488 limits assumed): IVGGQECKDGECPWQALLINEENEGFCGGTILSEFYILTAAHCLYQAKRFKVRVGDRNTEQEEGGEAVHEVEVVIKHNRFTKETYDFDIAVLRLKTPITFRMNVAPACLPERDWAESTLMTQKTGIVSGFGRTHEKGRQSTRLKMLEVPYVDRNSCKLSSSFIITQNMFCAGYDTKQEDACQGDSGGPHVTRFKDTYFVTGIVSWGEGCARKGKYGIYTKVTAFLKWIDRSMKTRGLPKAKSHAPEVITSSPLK
T2 sequence (P00742 41-179 limits assumed): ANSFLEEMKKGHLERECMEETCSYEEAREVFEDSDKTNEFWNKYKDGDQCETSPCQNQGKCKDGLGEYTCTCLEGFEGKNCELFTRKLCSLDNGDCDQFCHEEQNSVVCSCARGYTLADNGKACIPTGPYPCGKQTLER
Protocol: as §1
Afterwards, it was determined whether serine proteases, like thrombin, plasmin, factor Xa and trypsin, hydrolyze recombinant protein. For this purpose, recombinant protein (10 μM) was incubated with or without serine protease 1 μM (thrombin, plasmin, trypsin or factor Xa) in phosphate buffer 50 mM containing NaCl 150 mM and 0.1% of PEG, pH 7.4 for 6 h or 18 h at 37° C. SDS-PAGE of reaction mixture following 6 h of incubation presented that, compared to control strip of recombinant protein, strip intensity of 20-kDa (corresponding to non-digested recombinant protein) decreased and strips of lower molecular weight appeared in recombinant protein incubated by thrombin (FIG. 5A). […] Upon addition of chromogenic substrate S-2238, the hydrolysis thereof by thrombin was monitored in spectrophotometer way. […]

[4] = tested on: isolated human plasma; test: Activated partial thromboplastin time (aPTT) in isolated human plasma; format: biochemical; conditions: plasma of healthy human volunteers, incubation 3 min. at 37° C.
Protocol: Plasma was obtained from blood of healthy human volunteer and incubated with different concentrations of recombinant protein. APTT, PT and TT were determined like experimental procedure. (A) Activated partial thromboplastin time (B) prothrombin time and (C) thrombin time. Ctrl is related to plasma and Sal is related to plasma plus saline.
Finally, PT, aPTT and TT were assessed in isolated plasma of healthy human volunteers following incubation with recombinant protein for 3 min. at 37° C. […] Maximum test reading for aPTT was achieved following 12 nM, while for PT that was achieved following 6 nM of recombinant protein (FIGS. 11A and 11B).

[5] = Half-life in plasma ex vivo and in phosphate buffer containing thrombin; format: in vitro ADME; conditions: plasma ex vivo and phosphate buffer 50 mM with 1 μM thrombin, recombinant protein 10 μM, pH 7.4, 37° C.
[6] = target: thrombin (Homo sapiens, UniProt P00734); test: Degradation of recombinant protein by thrombin (SDS-PAGE and residual thrombin inhibition); format: in vitro ADME; set-up: Brown and cyan colors represent heavy and light chain of thrombin respectively
Protocol: as §1, §2

B1: GKPQGHPHDALEARSDAVHTAVPKMPKGGHGGFEPIPIDYDERALEARSDAVHTAVPKMPKGGLGGFEPIPIDYDERALEARSDAVHTAVPKMPKGGHGGFEPIPIDYDERALEARSDAVHTAVPKMPKGGHGGFEPIPIDYDERALHALEHHHHHH (protein)
chain: GKPQGHPHDALEARSDAVHTAVPKMPKGGHGGFEPIPIDYDERALEARSDAVHTAVPKMPKGGLGGFEPIPIDYDERALEARSDAVHTAVPKMPKGGHGGFEPIPIDYDERALEARSDAVHTAVPKMPKGGHGGFEPIPIDYDERALHALEHHHHHH
modifications: Sculptin recombinat protein
notes: recombinant His-tagged protein modified from tick sculptin, expressed in E. coli
[1]
  inhibition of plasmin: did not inhibit
[2]; 10 μM protein with 1 μM plasmin, 6 h at 37° C.
  SDS-PAGE strip of 20-kDa (non-digested recombinant protein): completely disappeared
[2]; 10 μM protein with 1 μM plasmin, 18 h at 37° C.
  SDS-PAGE strip of 20-kDa (recombinant protein monomer): completely disappeared
[2]; after 18 h incubation with plasmin, diluted to 100 pM
  thrombin inhibition after incubation: did not inhibit thrombin
[3]; 10 μM protein with 1 μM factor Xa, 6 h at 37° C.
  SDS-PAGE, hydrolysis of recombinant protein: converted the recombinant protein in fragments
[3]; 10 μM protein with 1 μM factor Xa, 18 h at 37° C.
  SDS-PAGE strip of 20-kDa (recombinant protein monomer): completely disappeared
[3]; after 6 h digestion with factor Xa, thrombin 100 pM
  thrombin inhibition after incubation: retained its thrombin inhibition activity
[3]; after 18 h incubation with factor Xa
  thrombin inhibition after incubation: even inhibited the thrombin activity
[4]
  aPTT: prolonged by recombinant protein in concentration-dependent way
  concentration at which maximum test reading for aPTT was achieved: 12 nM
[5]
  Half-life: 8 h
[6]; 10 μM protein with 1 μM thrombin, 6 h at 37° C.
  SDS-PAGE strip intensity of 20-kDa (non-digested recombinant protein): decreased
[6]; 10 μM protein with 1 μM thrombin, 18 h at 37° C.
  SDS-PAGE strip of 20-kDa (recombinant protein monomer): completely disappeared
[6]; after 18 h incubation with thrombin, diluted to 100 pM
  thrombin inhibition after incubation: did not inhibit thrombin
